How the values were obtained:
[1] = target: T1, human Siglec15-Fc protein (human); assay: competitive ELISA: coated human Siglec15-Fc, blocked ligand biotin-labeled human LRRC4C-Fc
T1 construct: In house made; also called recombinant human Siglec15 protein with human IgG1 Fc at the C-terminus
Method: Serially diluted anti-Siglec15 antibodies or the controls (starting at 66.67 nM with a 5-fold serial dilution) in PBST with 2.5% w/v non-fatty milk were added to the Siglec15-Fc bound plates, 100 μl per well, and incubated with the human Siglec15-Fc protein at 37° C. for 40 minutes. Plates were washed 4 times again using wash buffer, then added and incubated for 40 minutes at 37° C. with 100 μl/well 290 ng/ml biotin-labeled human LRRC4C-Fc protein (prepared in-house with SEQ ID NO: 23). Plates were washed again using wash buffer. Thereafter, the plates were added with 100 μl/well streptavidin conjugated HRP (1:5000 dilution in PBST buffer, Jackson Immunoresearch, Cat #016-030-084) and incubated for 40 minutes at 37° C. Plates were washed again using wash buffer. Finally, TMB was added and the reaction was stopped using 1M H₂SO₄, and the absorbance of each well was read on a microplate reader using dual wavelength mode with 450 nm for TMB and 630 nm as the reference wavelength, then the OD (450-630) values were plotted against antibody concentration. Data was analyzed using Graphpad Prism software and IC₅₀ values were reported.

[2] = target: T1, human Siglec15-Fc protein; assay: competitive ELISA: biotin-labeled human Siglec15-Fc in solution, competitor coated benchmark
Method: The abilities of the anti-Siglec15 antibodies of the disclosure to block benchmark-human Siglec15 binding were measured in a competitive ELISA assay. Briefly, the benchmark was coated on 96-well micro plates at 2 μg/mL in PBS, 100 μl per well, and incubated for 2 hours at 37° C. Then plates were washed once with wash buffer, and blocked with 5% w/v non-fatty milk in PBST overnight at 4° C. The next day, the anti-Siglec15 antibodies of the disclosure or controls were diluted with biotin labeled human Siglec15-Fc protein (prepared in-house with SEQ ID NO: 19, 37 ng/ml in PBST with 2.5% w/v non-fatty milk), starting at 80 nM with a 4-fold serial dilution, and incubated at room temperature for 40 minutes. After plate washing 4 times, the antibody/Siglec15-Fc mixtures were added to benchmark coated plates, 100 μl per well. After incubation at 37° C. for 40 minutes, plates were washed 4 times again using wash buffer. Then the plates were added and incubated with 100 μl/well streptavidin conjugated HRP for 40 minutes at 37° C. […] Finally, TMB was added and the reaction was stopped using 1M H₂SO₄, and the absorbance of each well was read on a microplate reader using dual wavelength mode with 450 nm for TMB and 630 nm as the reference wavelength, then the OD (450-630) values were plotted against antibody concentration. Data was analyzed using Graphpad Prism software and IC₅₀ values were reported.

[3] = target: T2, human Siglec15 on human-siglec15-2D3-1E1 cells (human, UniProt Q6ZMC9 20-328); assay: cell based binding FACS on human-siglec15-2D3-1E1 cells
T2 construct: whole, on cells; Transfected HEK-293 cells; also called cell surface human Siglec15
T2 sequence (looked up): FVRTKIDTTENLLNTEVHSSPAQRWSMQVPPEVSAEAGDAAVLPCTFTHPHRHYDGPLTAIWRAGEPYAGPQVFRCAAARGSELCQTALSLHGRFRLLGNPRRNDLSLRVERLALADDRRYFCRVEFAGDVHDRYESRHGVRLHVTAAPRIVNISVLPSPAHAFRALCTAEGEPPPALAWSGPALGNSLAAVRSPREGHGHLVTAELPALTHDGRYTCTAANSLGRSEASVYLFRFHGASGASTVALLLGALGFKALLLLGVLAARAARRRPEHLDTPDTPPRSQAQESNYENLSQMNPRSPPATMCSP
Method: The binding activities of the anti-Siglec15 antibodies to cell surface Siglec15 were tested by flow cytometry (FACS), using in-house prepared human-siglec15-2D3-1E1 cells expressing human Siglec15 (amino acid residues Met1-Pro328 of uniprot #Q6ZMC9) on cell membranes. The human-siglec15-2D3-1E1 cells were prepared by transfecting HEK-293 cells (ATCC #CRL-1573) with pCMV-T-P plasmids inserted with human Siglec15 coding sequence between EcoRI and XbaI sites, following the instruction of lipofectamine 3000 transfection reagent (Thermo Fisher). The human-siglec15-2D3-1E1 cells were harvested from cell culture flasks, washed twice and re-suspended in phosphate buffered saline (PBS) containing 2% v/v Fetal Bovine Serum (FACS buffer). 2×10⁵ cells per well in 96 well-plates were incubated in 100 μL serially diluted anti-Siglec15 antibodies or controls (starting at 66.67 nM, 5-fold serial dilution) in FACS buffer for 40 minutes on ice. […] Following a 40-minute incubation at 4° C. in dark, cells were washed three times and re-suspended in FACS buffer. Fluorescence was measured using a Becton Dickinson FACS Canto II-HTS equipment. Data was analyzed using Graphpad Prism software and EC₅₀ values were reported.

IC50 [1]: 855 pM
IC50 [2]: 338 pM
EC50 [3]: 15500 pM
B1: anti-Siglec15 benchmark (ch5G12) (antibody, human IgG1, kappa, V domains shown)
VH: QVQLQQPGAELVKPGASVKMSCKASGYTFTSYWITWVIQRPGQGLEWIGDIYCGSDTMHYNEKFKNKATLTVDTSSSTAYMQLSSLTSEDSAVYYCARWWDYGSSYDYFDYWGQGTTLTVSS
VL: DIKMTQSPSSMYASLGERVTITCKASQDINSYLSWFQQKPGKSPKTLIYRANRLVDGVPSRFSGSGSGQDYSLTISSLEYEDMGIYYCLQYDEFPYTFGGGTKLEIKR
notes: ch5G12 (US 20190202912A1); also called BM; Siglec15-ch5G9

From patent US20230106715A1 (BIOSION, published 2023)
